Results published in patent publication US20240076398A1 (VISTERRA, published 2024).
Where a chain is given by its changes, count along the chain named. No end group written: not given here.

B1: Clone_336_V2-1 (antibody, V domains shown)
VH: QVQLKQSGPGLVQSSQSLSITCTVSGFSLISYGVHWVRQSPGKGLEWLGVIWSGGSTDYNAAFKSRLSITKDNSKSQVFFKMNSLQADDTAIYYCAKNSQLGNAMDYWGQGTTVTVSS
VL: DIVMSQSPSSLAVSAGEKVTMSCKSSQSLLSSRTRKNYLAWYQQKPGQSPKLLIYWASTRESGVPDRFTGSGSGTDFTLTISSVQAEDLALYFCNQSYDLLTFGAGTKLEIK
B2: Clone_184 (antibody, V domains shown)
VH: QVQLQQSGAELVKPGASVKISCKASGYAFSRYWMNWVKQRPGKGLEWIGQIYPGDGDTKYNGKFKGKATLTADKSSSTAYMQLNSLTSEDSAVYFCTRSLGVWGTGTTVTVSS
VL: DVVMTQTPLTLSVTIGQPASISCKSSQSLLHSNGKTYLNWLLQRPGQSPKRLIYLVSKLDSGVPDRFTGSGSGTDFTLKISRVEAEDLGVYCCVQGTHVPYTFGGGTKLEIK
B3: Clone_453 (antibody, V domains shown)
VH: QVQLKQSGPGQVAPSQSLSITCTVSGFSLINSAVHWVRQSPGKGLEWLGVIWSDGSTDYNTAFISRLSISRDNSKSQVFFKMRSLQVDDTAVYYCARNGRLGNAMDYWGQGTSVTVSS
VL: DIVMTQSPSSLAVSVGEKVTMSCKSSQSLFSSRTRKNYLAWYQQKPGQSPKLLIYWASTRESGVPYRFTGSGSGTDFTLTISSVQTEDLAVYYCKQSYNLLTFGAGTKLEL
B4: Clone_79 (antibody, V domains shown)
VH: QVQLKESGPGLVAPSQSLSITCTVSGFSLTSYAISWVRQPPGKGLEWLGVIWTGGGTKYNSALKSRLSISKDNSKSHVFLKMNSLQSDDTARYYCARDGDYVYYAMAYWGQGTTVTVSS
VL: DVVMTQTPLSLPVSLGDQASISCRSSQSLVHSNGNTYLHWYLQKPGQSPKLLIYKVSNRFSGVPDRFSGSGSGTDFKLKISRVEAEDLGVYFCSQSTHVPPTFGGGTKLEIK
notes: also called antibody 79
B5: Clone_584 (antibody, V domains shown)
VH: DVQLQESGPDLVKPSQSLSLTCTVTGYSITSGYSWHWIRQSPGNKLEWLAYIHNSGSTNYNPSLKSRISITRDTSKNQFFLKLNSVTTEDTATYYCARSIGDYWGQGTTLAVSS
VL: B4 VL with Q18R, S26G, K44R, Q47R, K50N, K77T, P101W
B6: Clone_429 (antibody, V domains shown)
VH: QVQLQQSGAELAKPGASVKLSCKASGYTFSSYWIHWVKQRPGQGLEWIGYINPRGDYTKYNQKFKDKATLTADKSSSTAFMQLSSLTYEDSAVYYCVRVTGSEGPYYFDYWGQGTTLTVSS
VL: B4 VL with H39Q, D75E, K77T, S81R, Y91F, F92L, H98L, P101L, G105A, I111L
B7: Clone_329 (antibody, V domains shown)
VH: QVQLQQSGAELTKPGASVKLSCKASGYTFTNYWMHWVKQRPGQGLEWIGYLNPSSGYTKYNQKFKDKATLTADKSSSTAYMQLNSLTYEDSAVYYCTRSGGDNYGNPYYFDRWGQGTTVTVSS
VL: B4 VL with P12T, L51F, K77R, H98L, P101L, G105A
notes: also called Ab329; mAb329
B8: Clone_583 (antibody, V domains shown)
VH: EVQLVESGGGLVKPGGSLKLSCAASGFTFNAYAMSWVRQTPEKRLEWVASISTGGNTYCPDSVKDRFTVSRDNVRNILYLQMSSLRSEDTAMYYCTRGYQRFSGFAYWGQGTLVTVS
VL: B4 VL with L11P, D17Y, H39N, F60L, K77T, A85T, P101Y
notes: also called Ab583; mAb583
B9: Clone_11_V2 (antibody, V domains shown)
VH: QVQLQQSGPELVKPGASVKISCKASGYSFSSSWMNWVKQRPGKGLEWIGRISPGDGDTRYSGKFKGKATLTADKSSSTAYMQVTSLTSEDSAIYFCVRFLITSTRYVMDYWGQGTTVTVSS
VL: B4 VL with K77T, H98L
notes: also called Ab11v2
B10: Clone_511 (antibody, V domains shown)
VH: QVQLQQSGAELAKPGASVKLSCKTSGYTFTNYWMHWIKQRPGLGLEWIGYINPSGDYTKHNQKFKDKATLTADRSSSTAYMQLSSLTYEDSAVYYCARVPLSYGSGNGPYYFDYWGQGTTLTVSS
VL: DVVMTQTPLSLPVSLGDHASISCRSSQSLVHSNGNIYLHWYLQRPGQSPKLLIHKVSNRFSGVPDRFSGSGSGTDFTLKISRVEAEDVGIYFCSQSTLVPLTFGSGTKLELK
B11: Clone_518 (antibody, V domains shown)
VH: B10 VH
VL: B10 VL with I36T
B12: Clone_588 (antibody, V domains shown)
VH: DVQLQESGPGLVKPSQSLSLTCTVTGYSITSDYAWNWIRQFPGNKLEWMGYISYSGSIRYNPSLKSRISITRDTSKNQFFLQLNSVTTEDTATYYCAITTGGYFDYWGQGTTLTVSS
VL: DIQMTQSTSSLSASLGDRVTISCRASQDISNYLNWYQQTPDGTVKLLIYQISRLHSGVPSRFSGSGSGTDYSLTISNLEEEDIANYFCQQGNSLPPTFGGGTKVEIK
B13: Clone_402 (antibody, V domains shown)
VH: QIQLVQSGPELKKPGETVKISCKASGYTFTTFGMSWVKQAPGKGLKWMGWINTNSGMPTYTDDFRGRFAFSLETSASTAYLQISSLKNEDTATYFCARKSLFYWGQGTTLTVSS
VL: DVVMTQSPLTLSVTIGQPASISCRSSRSLLDSDGKTKLHWLLQRPGQSPKSLIYLVSKLDSGVPNRFTGGGSGTDFTLKINRVEAEDLGVYYCWQGTHFPWTFGVGTKLEIK
B14: antibody 343 (antibody, V domains shown)
VH: QVQLQQSGAELVKPGASVKLSCKASGYTFTEYTIHWVNQRSGQGLEWIGWFYPGSGSIKYNEKFKDKATLTADKSSHTVYMELSRLTSEDSAVYFCARHGNYYDGSWFAYWGQGTLVTVSA
VL: DVQITQSPSYLAASPGETITINCRASKSISKYLAWYQEKPGKTNKLLIYSGSTLQSGIPSRFSGSGSGTDFTLTISSLEPEDFAMYYCQQHDEYPWTFGGGTKLEIK
B15: antibody 317 (antibody, V domains shown)
VH: QVQLQQPGAELVMPGASVKLSCKASGYTFTSYWLHWVRQRPGQGLEWIGEIDPSDGYSNHNQKFKGKATLTVDKSSSTAYMQLSSLTSEDSAVYYCATEGFWGQGTTVTVSS
VL: DIVMTQSPSSLSVSAGEKVTMSCKSSQSLLKSGNQKNYLAWHQQKPGQPPKLLIYGASTRESGVPDRFTGSGSGTDFTLTISSVQAEDLAVYYCQNDHSHPYTFGGGTKLEIK
B16: Clone_66 (antibody, V domains shown)
VH: QVQLQQSDAELVKPGASVKISCKASGYTFIDHAIHWVKQRPEQGLEWIGYISPGNGEIKYNEKFKAKATLTADKSSSAAYMQLNSLTSADSAVYFCKRALFYYTGKYQPMDYWGQGTTVTDSS
VL: DIVMTQSQKFMSTTAGDRVSITCKASQNVGSAVVWYQQKPGRSPKLLIYSSSIRYTGVPDRFTGSGSGTDFTLTINSVQSEDLADYFCQQYNSFPLTFGAGTKLEIK
notes: also called Ab66; mab 66

Legend:
Assay in all cases: BLI, peptide on streptavidin sensor
[1] = target: T1, biotinylated N-terminal peptide of C5aR1 with tyrosine sulfation (human, tyrosine sulfation (the sulfated tyrosines of C5aR1 are Y11 and Y14); biotinylated)
T1 construct: also called Sulfated N-terminal
T1 peptide: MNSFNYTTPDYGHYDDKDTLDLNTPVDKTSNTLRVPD
Excerpt: (§1) The epitope mapping was undertaken, using biolayer interferometry, on a series of exemplary anti-C5aR1 antibodies generated as described in Example 1. Briefly, for each antibody, biotinylated peptides representing ECL2, the N-terminus with tyrosine sulfation, and the N-terminus without tyrosine sulfation, were immobilized in a streptavidin biosensor. Subsequently, the biosensor was exposed to […] of antibody to detect antibody binding to the immobilized peptide. The results of the epitope mapping study are shown in Table 4 (“+” indicates binding to the listed peptide; “−” indicates lack of binding to the listed peptide).

[2] = target: T2, biotinylated N-terminal peptide of C5aR1 without tyrosine sulfation (human, biotinylated)
T2 construct: also called Non-sulfated N-terminal
T2 peptide: T1 peptide
Excerpt: as §1

[3] = target: T3, biotinylated cyclic ECL2 peptide of C5aR1 (human, also: biotinylated, position not given here, cyclic, way of cyclisation not given here)
T3 peptide: RVVREEYFPPKVLC
Excerpt: as §1

Binder	binding result [1]	binding result [2]	binding result [3]
B1	no binding (tested: 10 gg/mL (so in the source))	no binding (tested: 10 gg/mL (so in the source))	
B2			no binding (tested: 10 gg/mL (so in the source))
B3	no binding (tested: 10 gg/mL (so in the source))	no binding (tested: 10 gg/mL (so in the source))	
B4	no binding (tested: 10 gg/mL (so in the source))	no binding (tested: 10 gg/mL (so in the source))	
B5	no binding (tested: 10 gg/mL (so in the source))	no binding (tested: 10 gg/mL (so in the source))	
B6	no binding (tested: 10 gg/mL (so in the source))	no binding (tested: 10 gg/mL (so in the source))	
B7	no binding (tested: 10 gg/mL (so in the source))	no binding (tested: 10 gg/mL (so in the source))	
B8			no binding (tested: 10 gg/mL (so in the source))
B9	no binding (tested: 10 gg/mL (so in the source))	no binding (tested: 10 gg/mL (so in the source))	
B10	no binding (tested: 10 gg/mL (so in the source))	no binding (tested: 10 gg/mL (so in the source))	
B11	no binding (tested: 10 gg/mL (so in the source))	no binding (tested: 10 gg/mL (so in the source))	
B12	no binding (tested: 10 gg/mL (so in the source))	no binding (tested: 10 gg/mL (so in the source))	
B13			no binding (tested: 10 gg/mL (so in the source))
B14	no binding (tested: 10 gg/mL (so in the source))	no binding (tested: 10 gg/mL (so in the source))	
B15	no binding (tested: 10 gg/mL (so in the source))	no binding (tested: 10 gg/mL (so in the source))	
B16			no binding (tested: 10 gg/mL (so in the source))
